Source: publication PMC8488606, “The citron homology domain as a scaffold for Rho1 signaling” (Proceedings of the National Academy of Sciences of the …, 2021)

How the values were obtained:
[1] = target: T1, Recombinant His6-Rom2 CNH (862-1194), citron homology domain of Aspergillus fumigatus Rom2 (Aspergillus fumigatus, UniProt Q4WUI2 862-1194, biotinylated using the EZLink NHS-Peg4-Biotin reagent (for BLI)); assay: BLI; biotinylated AfRom2 CNH on super streptavidin (SSA) biosensors, apo AfRho1 (no nucleotide) in solution, Octet Htx; 25 mM Hepes, 150 mM NaCl, 0.5 mM TCEP pH 7.5; six-point series from 1 mM in threefold dilutions; conditions: both partners purified
T1 construct: Rom2 (guanine nucleotide exchange factor of Rho1), Aspergillus fumigatus, UniProt Q4WUI2, CNH domain construct residues 862-1194; Cloned into a noncleavable 6His version of pGEX6P1 with primers P23 and P24, then the C terminus was truncated with primers P19 and P20; The N-terminal end of the tag is read from the printed name 'His6-Rom2 CNH'; also called AfRom2 CNH; AfRom2CNH; source: E. coli BL21 …
T1 sequence (looked up): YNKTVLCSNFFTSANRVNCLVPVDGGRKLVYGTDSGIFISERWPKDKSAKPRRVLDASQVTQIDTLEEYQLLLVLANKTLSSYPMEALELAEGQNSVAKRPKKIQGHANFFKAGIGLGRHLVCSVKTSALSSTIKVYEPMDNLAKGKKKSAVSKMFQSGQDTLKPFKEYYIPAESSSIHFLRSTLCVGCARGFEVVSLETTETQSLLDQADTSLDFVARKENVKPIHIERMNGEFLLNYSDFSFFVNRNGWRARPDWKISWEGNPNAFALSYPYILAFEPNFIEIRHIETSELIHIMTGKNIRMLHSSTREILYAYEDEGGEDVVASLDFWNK

[2] = target: T1, Recombinant His6-Rom2 CNH (862-1194), …; assay: BLI; biotinylated AfRom2 CNH on super streptavidin (SSA) biosensors, AfRho1 with GDP or GTPγS (saturating nucleotide) in solution, Octet Red 384; 25 mM Hepes, 150 mM NaCl, 0.5 mM TCEP pH 7.5; six-point series from 1 mM in threefold dilutions; conditions: both partners purified

B1: Recombinant AfRho1 (residues 1 to 181) with F25N mutation (enzyme)
chain: not shown
notes: Rho1 GTPase, Aspergillus fumigatus, residues 1 to 181, F25N introduced for protein stability; Expressed from pGEX6P1; GST removed with PreScission protease; Used without nucleotide, with GDP or with GTPγS in BLI; also called apo AfRho1; AfRho1-GDP; source: E. coli BL21 (non-DE3), purified (Glutathione-Sepharose, PreScission cleavage, Superdex 75)
[1]
  Kd: 80 µM
[2]
  Kd: 200 µM
